Source: the supplement of paper PMC10567573

B1: CPOX (parent)
chain: HAPTIHFNYRYFEVEEADGNKQWW
B2: INTS3 (parent)
chain: AQLQALRQKEVDFCISLLRERFME

Variants of: B1
Experiment: protein stability index of a GFP-peptide fusion (GPS, HEK-293T) (PSI 1-6); higher = more stable
Details: c terminus: a fixed tail appended
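Note: lentivirally expressed fusions sorted by FACS into six bins by GFP to DsRed ratio, PSI derived from sequencing read proportions per bin multiplied by bin number.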

Protein stability index of substitutions, site by site:
K21: V 2.1 | W 1.89 | Y 1.95
W24: V 3.1 | K 3.24 | A 3.17 | C 2.63 | R 3.11 | F 2.69 | E 3.06 | Q 2.34 | Y 2.51 | T 2.86 | M 3.4 | G 2.81 | L 2.66 | H 3.03 | I 3.35 | N 3.06 | S 2.91 | P 2.91 | D 3.82
W23: A 3.94 | P 3.34 | K 3.35 | Q 3.38 | V 2.36 | Y 2.33 | R 3.03 | T 2.63 | G 2.8 | N 3.71 | D 4.27 | C 2.07 | I 2.58 | H 3.06 | E 4.22 | F 2.04 | M 3.04 | L 2.73 | S 3.19
Q22: S 1.59 | L 2.01 | V 1.9 | C 1.96 | Y 2.5 | E 3.35 | A 1.98 | R 2.5 | H 2.03 | M 1.76 | T 2.27 | N 2.19 | F 1.67 | G 2.46 | I 2.3 | W 2 | P 2.56 | D 3.12

Variants of: B2
Experiment: as above
Details: c terminus: a fixed tail appended

Protein stability index of substitutions, site by site:
L17: E 2.06 | S 1.22 | T 1.8 | R 2.08 | Q 2.45 | V 3.89 | K 2 | F 1.9 | D 2.56 | A 2.03 | W 2.46 | N 2.1 | H 1.65
I15: E 2.34 | D 2.54 | T 2.07 | Q 1.77 | M 1.17 | H 2.37 | R 1.71 | L 2.84 | A 1.62 | P 2.07 | G 2.6 | K 2.17
R19: G 1.37 | Q 2.74 | Y 2.94 | F 1.87 | M 2.43 | D 1.57 | S 3.43 | P 2.21
R21: D 1.14 | K 2.5 | F 1.36 | M 2.09 | A 2.41 | E 2.1 | H 2.91 | G 2.99 | L 2.34 | C 2.58 | N 2.7
A5: Y 2.68 | L 3.11 | V 1.04 | M 1.51 | F 4.25 | H 2.44 | I 2.07 | T 1.65 | K 1.92 | N 2.61 | C 3.02
M23: N 2.55 | R 2.91 | H 1.96 | I 2.46 | T 1.85 | S 1.42
E10: A 2.86 | K 2.2 | W 1.53 | R 2.09 | F 2.15 | I 2.25 | M 2.87 | L 3.79 | G 2.1 | C 1.02 | P 2.72 | S 3.14
F22: Q 1.98 | A 1.45 | C 1.19 | T 1.97 | W 3.21 | S 1.31 | P 1.67 | D 2.24 | R 2.1 | H 1.18 | N 1.69 | E 2.16 | K 1.92
L6: R 2.02 | F 2.59 | G 1.98 | D 1.96 | S 2.14 | M 2.44 | T 1.86 | E 1.52 | A 2.13 | V 2.98 | Q 2.02 | W 1.73 | N 1.97 | I 1.93 | K 2.31
V11: R 1.99 | F 2.1 | L 4.26 | D 2.49 | A 2.23 | M 3.61 | G 1.72 | K 1.7 | W 2.14 | C 1.29 | P 2.7 | S 1.67 | Q 1.81 | Y 2.73
C14: W 1.96 | Q 1.84 | P 2.03 | H 1.94 | S 2.02 | D 2.03 | T 1.68 | Y 2.16 | N 1.52 | R 2.16
Q2: T 3.02 | N 3.27 | P 2.38 | R 4.11 | W 2.42 | E 1.48 | I 1.67 | G 3.4 | F 2.63 | Y 3.15 | C 2.98 | H 4.58
L3: E 2.21 | Q 1.78 | H 1.41 | A 2.15 | N 1.55 | R 1.19 | S 1.76 | G 2.11 | C 1.76 | P 1.62 | K 1.5 | I 2.87
D12: C 3.46 | F 1.05 | Y 2.09 | N 1.59 | R 2.19 | H 3.57 | T 2.66 | I 1.91 | Q 2.12
Q4: I 3.2 | G 2.13 | T 3.02 | L 2.45 | V 2.98 | M 2.55 | H 3.32 | E 2.81 | N 2.4 | D 2.04 | A 3.65 | C 1.93 | F 1.83
E20: D 2.65 | C 2.38 | R 2.49 | I 3.04 | P 2.08 | L 2.34 | S 5.14 | M 2.92
E24: G 1.92 | Q 1.4 | T 1.77 | R 3.34 | N 2.72 | A 3.89 | I 2.7 | Y 2.66
F13: G 2 | C 3.42 | T 2.44 | E 1.66 | W 3.65 | S 2.19 | Q 1.82 | K 2.9 | M 2.52 | H 1.95 | D 1.55 | L 1.64 | P 2.3 | R 1.27 | Y 5.35 | N 2.37
S16: N 3.32 | C 3.15 | G 3.67 | I 2.38 | M 4.38 | L 1.85 | R 3.39 | K 1.65 | D 2.09 | P 2.14 | Y 3.56
L18: T 2.24 | D 2.38 | G 3.07 | Q 3.04 | C 1.02 | H 1.76 | V 3.22 | S 1.87 | A 1.7 | R 2.2 | K 2.34 | N 1.97 | M 3.87 | P 2.04
K9: H 3.64 | W 1.45 | S 2.29 | F 2.45 | G 2.51 | N 1.93 | T 2.45 | I 3.07 | R 2.32 | L 2.48 | P 2.91 | M 2.65 | E 2.18 | C 2.98
Q8: T 3.06 | Y 4.01 | H 3.1 | L 1.78 | E 1.91 | G 2.55 | K 1.65 | V 3.32 | D 2.83
A1: W 2.49 | I 2.43 | L 1.61 | H 3.79 | E 2.65 | P 3.68 | G 2.93 | M 2.4 | V 2.85 | T 3.13 | Q 2.43 | D 2.11 | N 2.73
R7: P 2.23 | F 2.46 | T 3.43 | H 2.84 | Y 3.17 | S 2.93 | L 2.24 | Q 2.73 | D 1.65 | G 4.64 | W 2.6
